B1: ^316ATPF^319AVPI: Caspase-9 mutant (SEQ ID NOS 97 and 98) (SMAC/Diablo) (protein, UniProt P55211 1-416, looked up, variant T317V F319I)
chain: MDEADRRLLRRCRLRLVEELQVDQLWDALLSRELFRPHMIEDIQRAGSGSRRDQARQLIIDLETRGSQALPLFISCLEDTGQDMLASFLRTNRQAAKLSKPTLENLTPVVLRPEIRKPEVLRPETPRPVDIGSGGFGDVGALESLRGNADLAYILSMEPCGHCLIINNVNFCRESGLRTRTGSNIDCEKLRRRFSSLHFMVEVKGDLTAKKMVLALLELAQQDHGALDCCVVVILSHGCQASHLQFPGAVYGTDGCPVSVEKIVNIFNGTSCPSLGGKPKLFFIQACGGEQKDHGFEVASTSPEDESPGSNPEPDAVPIQEGLRTFDQLDAISSLPTPSDIFVSYSTFPGFVSWRDPKSGSWYVETLDDIFEQWAHSEDLQSLLLRVANAVSVKGIYKQMPGCFNFLRKKLFFKTS
B2: F404W (protein)
chain: GFGDVGALESLRGNADLAYILSMEPCGHCLIINNVNFCRESGLRTRTGSNIDCEKLRRRFSSLHFMVEVKGDLTAKKMVLALLELAQQDHGALDCCVVVILSHGCQASHLQFPGAVYGTDGCPVSVEKIVNIFNGTSCPSLGGKPKLFFIQACGGEQKDHGFEVASTSPEDESPGSNPEPDATPFQEGLRTFDQLDAISSLPTPSDIFVSYSTFPGFVSWRDPKSGSWYVETLDDIFEQWAHSEDLQSLLLRVANAVSVKGIYKQMPGCWNFLRKKLFFKTS
B3: D315A (protein)
chain: GFGDVGALESLRGNADLAYILSMEPCGHCLIINNVNFCRESGLRTRTGSNIDCEKLRRRFSSLHFMVEVKGDLTAKKMVLALLELAQQDHGALDCCVVVILSHGCQASHLQFPGAVYGTDGCPVSVEKIVNIFNGTSCPSLGGKPKLFFIQACGGEQKDHGFEVASTSPEDESPGSNPEPAATPFQEGLRTFDQLDAISSLPTPSDIFVSYSTFPGFVSWRDPKSGSWYVETLDDIFEQWAHSEDLQSLLLRVANAVSVKGIYKQMPGCFNFLRKKLFFKTS
B4: A316G (protein)
chain: GFGDVGALESLRGNADLAYILSMEPCGHCLIINNVNFCRESGLRTRTGSNIDCEKLRRRFSSLHFMVEVKGDLTAKKMVLALLELAQQDHGALDCCVVVILSHGCQASHLQFPGAVYGTDGCPVSVEKIVNIFNGTSCPSLGGKPKLFFIQACGGEQKDHGFEVASTSPEDESPGSNPEPDGTPFQEGLRTFDQLDAISSLPTPSDIFVSYSTFPGFVSWRDPKSGSWYVETLDDIFEQWAHSEDLQSLLLRVANAVSVKGIYKQMPGCFNFLRKKLFFKTS
B5: Y153F (protein)
chain: GFGDVGALESLRGNADLAFILSMEPCGHCLIINNVNFCRESGLRTRTGSNIDCEKLRRRFSSLHFMVEVKGDLTAKKMVLALLELAQQDHGALDCCVVVILSHGCQASHLQFPGAVYGTDGCPVSVEKIVNIFNGTSCPSLGGKPKLFFIQACGGEQKDHGFEVASTSPEDESPGSNPEPDATPFQEGLRTFDQLDAISSLPTPSDIFVSYSTFPGFVSWRDPKSGSWYVETLDDIFEQWAHSEDLQSLLLRVANAVSVKGIYKQMPGCFNFLRKKLFFKTS
B6: C403T (protein)
chain: GFGDVGALESLRGNADLAYILSMEPCGHCLIINNVNFCRESGLRTRTGSNIDCEKLRRRFSSLHFMVEVKGDLTAKKMVLALLELAQQDHGALDCCVVVILSHGCQASHLQFPGAVYGTDGCPVSVEKIVNIFNGTSCPSLGGKPKLFFIQACGGEQKDHGFEVASTSPEDESPGSNPEPDATPFQEGLRTFDQLDAISSLPTPSDIFVSYSTFPGFVSWRDPKSGSWYVETLDDIFEQWAHSEDLQSLLLRVANAVSVKGIYKQMPGTFNFLRKKLFFKTS
B7: C403A (protein)
chain: GFGDVGALESLRGNADLAYILSMEPCGHCLIINNVNFCRESGLRTRTGSNIDCEKLRRRFSSLHFMVEVKGDLTAKKMVLALLELAQQDHGALDCCVVVILSHGCQASHLQFPGAVYGTDGCPVSVEKIVNIFNGTSCPSLGGKPKLFFIQACGGEQKDHGFEVASTSPEDESPGSNPEPDATPFQEGLRTFDQLDAISSLPTPSDIFVSYSTFPGFVSWRDPKSGSWYVETLDDIFEQWAHSEDLQSLLLRVANAVSVKGIYKQMPGAFNFLRKKLFFKTS
B8: N405F (protein)
chain: GFGDVGALESLRGNADLAYILSMEPCGHCLIINNVNFCRESGLRTRTGSNIDCEKLRRRFSSLHFMVEVKGDLTAKKMVLALLELAQQDHGALDCCVVVILSHGCQASHLQFPGAVYGTDGCPVSVEKIVNIFNGTSCPSLGGKPKLFFIQACGGEQKDHGFEVASTSPEDESPGSNPEPDATPFQEGLRTFDQLDAISSLPTPSDIFVSYSTFPGFVSWRDPKSGSWYVETLDDIFEQWAHSEDLQSLLLRVANAVSVKGIYKQMPGCFFFLRKKLFFKTS
B9: F406T (protein)
chain: GFGDVGALESLRGNADLAYILSMEPCGHCLIINNVNFCRESGLRTRTGSNIDCEKLRRRFSSLHFMVEVKGDLTAKKMVLALLELAQQDHGALDCCVVVILSHGCQASHLQFPGAVYGTDGCPVSVEKIVNIFNGTSCPSLGGKPKLFFIQACGGEQKDHGFEVASTSPEDESPGSNPEPDATPFQEGLRTFDQLDAISSLPTPSDIFVSYSTFPGFVSWRDPKSGSWYVETLDDIFEQWAHSEDLQSLLLRVANAVSVKGIYKQMPGCFNTLRKKLFFKTS
B10: N405T (protein)
chain: GFGDVGALESLRGNADLAYILSMEPCGHCLIINNVNFCRESGLRTRTGSNIDCEKLRRRFSSLHFMVEVKGDLTAKKMVLALLELAQQDHGALDCCVVVILSHGCQASHLQFPGAVYGTDGCPVSVEKIVNIFNGTSCPSLGGKPKLFFIQACGGEQKDHGFEVASTSPEDESPGSNPEPDATPFQEGLRTFDQLDAISSLPTPSDIFVSYSTFPGFVSWRDPKSGSWYVETLDDIFEQWAHSEDLQSLLLRVANAVSVKGIYKQMPGCFTFLRKKLFFKTS
B11: F319A (protein)
chain: GFGDVGALESLRGNADLAYILSMEPCGHCLIINNVNFCRESGLRTRTGSNIDCEKLRRRFSSLHFMVEVKGDLTAKKMVLALLELAQQDHGALDCCVVVILSHGCQASHLQFPGAVYGTDGCPVSVEKIVNIFNGTSCPSLGGKPKLFFIQACGGEQKDHGFEVASTSPEDESPGSNPEPDATPAQEGLRTFDQLDAISSLPTPSDIFVSYSTFPGFVSWRDPKSGSWYVETLDDIFEQWAHSEDLQSLLLRVANAVSVKGIYKQMPGCFNFLRKKLFFKTS
B12: C403S (protein)
chain: GFGDVGALESLRGNADLAYILSMEPCGHCLIINNVNFCRESGLRTRTGSNIDCEKLRRRFSSLHFMVEVKGDLTAKKMVLALLELAQQDHGALDCCVVVILSHGCQASHLQFPGAVYGTDGCPVSVEKIVNIFNGTSCPSLGGKPKLFFIQACGGEQKDHGFEVASTSPEDESPGSNPEPDATPFQEGLRTFDQLDAISSLPTPSDIFVSYSTFPGFVSWRDPKSGSWYVETLDDIFEQWAHSEDLQSLLLRVANAVSVKGIYKQMPGSFNFLRKKLFFKTS
B13: Y153A (protein)
chain: GFGDVGALESLRGNADLAAILSMEPCGHCLIINNVNFCRESGLRTRTGSNIDCEKLRRRFSSLHFMVEVKGDLTAKKMVLALLELAQQDHGALDCCVVVILSHGCQASHLQFPGAVYGTDGCPVSVEKIVNIFNGTSCPSLGGKPKLFFIQACGGEQKDHGFEVASTSPEDESPGSNPEPDATPFQEGLRTFDQLDAISSLPTPSDIFVSYSTFPGFVSWRDPKSGSWYVETLDDIFEQWAHSEDLQSLLLRVANAVSVKGIYKQMPGCFNFLRKKLFFKTS
B14: N405A (protein)
chain: GFGDVGALESLRGNADLAYILSMEPCGHCLIINNVNFCRESGLRTRTGSNIDCEKLRRRFSSLHFMVEVKGDLTAKKMVLALLELAQQDHGALDCCVVVILSHGCQASHLQFPGAVYGTDGCPVSVEKIVNIFNGTSCPSLGGKPKLFFIQACGGEQKDHGFEVASTSPEDESPGSNPEPDATPFQEGLRTFDQLDAISSLPTPSDIFVSYSTFPGFVSWRDPKSGSWYVETLDDIFEQWAHSEDLQSLLLRVANAVSVKGIYKQMPGCFAFLRKKLFFKTS
B15: T317C (protein)
chain: GFGDVGALESLRGNADLAYILSMEPCGHCLIINNVNFCRESGLRTRTGSNIDCEKLRRRFSSLHFMVEVKGDLTAKKMVLALLELAQQDHGALDCCVVVILSHGCQASHLQFPGAVYGTDGCPVSVEKIVNIFNGTSCPSLGGKPKLFFIQACGGEQKDHGFEVASTSPEDESPGSNPEPDACPFQEGLRTFDQLDAISSLPTPSDIFVSYSTFPGFVSWRDPKSGSWYVETLDDIFEQWAHSEDLQSLLLRVANAVSVKGIYKQMPGCFNFLRKKLFFKTS
B16: P318A (protein)
chain: GFGDVGALESLRGNADLAYILSMEPCGHCLIINNVNFCRESGLRTRTGSNIDCEKLRRRFSSLHFMVEVKGDLTAKKMVLALLELAQQDHGALDCCVVVILSHGCQASHLQFPGAVYGTDGCPVSVEKIVNIFNGTSCPSLGGKPKLFFIQACGGEQKDHGFEVASTSPEDESPGSNPEPDATAFQEGLRTFDQLDAISSLPTPSDIFVSYSTFPGFVSWRDPKSGSWYVETLDDIFEQWAHSEDLQSLLLRVANAVSVKGIYKQMPGCFNFLRKKLFFKTS
B17: F319W (protein)
chain: GFGDVGALESLRGNADLAYILSMEPCGHCLIINNVNFCRESGLRTRTGSNIDCEKLRRRFSSLHFMVEVKGDLTAKKMVLALLELAQQDHGALDCCVVVILSHGCQASHLQFPGAVYGTDGCPVSVEKIVNIFNGTSCPSLGGKPKLFFIQACGGEQKDHGFEVASTSPEDESPGSNPEPDATPWQEGLRTFDQLDAISSLPTPSDIFVSYSTFPGFVSWRDPKSGSWYVETLDDIFEQWAHSEDLQSLLLRVANAVSVKGIYKQMPGCFNFLRKKLFFKTS

Test system: chimeric Caspase-9 polypeptide
Assay: Caspase mutant classes and basal activity (Table 3)
Format: cell-based, human
Settings: class heading of Table 3; for IC50: ligand IC50

chimeric Caspase-9 polypeptide, sequence (as listed by the source, change not shown): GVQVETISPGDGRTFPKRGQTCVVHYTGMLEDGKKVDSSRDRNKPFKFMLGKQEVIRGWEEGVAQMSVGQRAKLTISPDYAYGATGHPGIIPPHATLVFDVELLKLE

Row | Molecule | Basal Activity | IC50
1 | B1 | Similar | Similar
2 | B2 | Decreased | much higher
3 | B3 | Decreased | much higher
4 | B4 | Decreased | much higher
5 | B5 | Decreased | much higher
6 | B6 | Similar | Similar
7 | B7 | Similar | Similar
8 | B8 | Decreased | much higher
9 | B9 | Decreased | much higher
10 | B10 | Increased | 
11 | B11 | Similar | Similar
12 | B12 | Similar | Similar
13 | B13 | Decreased | much higher
14 | B14 | Similar | Similar
15 | B15 | Similar | Similar
16 | B16 | Similar | Similar
17 | B17 | Decreased | much higher

— patent publication US20160263155A1, “T CELL RECEPTORS DIRECTED AGAINST THE PREFERENTIALLY EXPRESSED ANTIGEN OF MELANOMA AND USES THEREOF” (LEIDEN UNIVERSITY MEDICAL CENTER, priority 2015, published 2016)
